Each binder was assayed against human mesothelin polypeptide (human) (UniProt Q13421) (assay: ELISA and SPR (Blitz) on a human mesothelin polypeptide).

Row | Binder | EC50 [nM]
1 | Clone #2 VH domain (protein) VH: EVQLVESGGGVVQPGRSLRLSCAASGFTFSSYAMHWVRQAPGKGLEWIGYIYTSGSTNYNPSLKSRVTISRDDSTNTLYLQMNSLRAEDTATYYCARTPRGRDSSGYYQSPHAFDIWGQGTLVTVSS | 1.6
2 | Clone #4 VH domain (protein) VH: EVQLVESGGGVVQPGRSLRLSCAASGFTFSSYAMHWVRQAPGKGLEWVSSISGNSLYKYYADSVKGRFTISRDDSTNTLYLQMNSLRAEDTATYYCTRHWAVGNWGQGTLVTVSS | 1.7
3 | Clone #3 VH domain (protein) VH: KVQLQQWGAGLLKPSETLSLTCAVYGGSFSGYYWSWIRQPPGKGLEWIGEINHSGSTNYNPSLKSRVTISVDTSKNQFSLKLSSVTAADTALYYCARTYRPHSYYYYGMDVWGQGTTVTVSS | 38
4 | Clone #6 VH domain (protein) VH: QVQLQQWGAGLLKPSETLSLTCAVYGGSFSGYYWSWIRQPPGKGLEWIGEINHSGSTNYNPSLKSRVTISVDTSKNQFSLKLSSVTAADTATYYCARSYRTVTYYKAYFQHWGQGTLVTVSS | 1000
5 | Clone #5 VH domain (protein) VH: EVQLVESGGGVVQPGRSLRLSCAASGLTFSSYAMHWVRQAPGKGLEWIGTIRYDGNTYYNPSLKSLVTISRDDSTNTLYLQMNSLRAEDTATYYCARRRYYDSSGYRGAAFDIWGQGTLVTVSS | 298
6 | Clone #1 VH domain (protein) VH: EVQLVESGGGVVQPGRSLRLSCAASGFTFSSYAMHWVRQAPGKALEWIGSISYSGSTYYNPSLKSRVTVSRDNAKNTLYLQMDSLRAEDTAMYYCAKYYCSGGTCYYFDYWGQGTLVTVSS | 1000

Further lines, results first:

Row | EC50 [nM] | Binder
7 | 1.3 | Clone #12 VH domain (protein) VH: EVQLVETGGDLAQPGESLRLSCVASGFTFSSSWMTWIRQAPGKGLEWVSSLSGRSEKTFYADSVKGRFTVSRDNAKNTLYLQMDSLRPEDTATYYCASGWALVWGQGTLVTVSS
8 | 107 | Clone #10 VH domain (protein) VH: EVQLVESGGGVVQPGRSLRLSCAASGFTFSSYAMHWVRQAPGKGLEWIGSIRHDGNTYYNPSLKSRVTVSRDNAKNTLYLQMDSLRAEDTAMYYCAKYGCSSISCSFDYWGQGTLVTVSS
9 | 6.5 | Clone #8 VH domain (protein) VH: EVQLVESGGGVVQPGRSLRLSCAASGFTFSSYAMHWVRQAPGKGLEWIGSIRHDGNTYYNPSLKSRVSVSRDNAKNTLYLQMDSLRAEDTAMYYCAKYGCSSISCSFDYWGQGTLVTVSS
10 | 16.4 | Clone #7 VH domain (protein) VH: EVQLVESGGGVVQPGRSLRLSCAASGFTFSSYAMHWVRQAPGKGLEWIGTIRYDGNTYYNPSLKSLVTISRDDSTNTLYLQMNSLRAEDTALYYCAKYGCSSTSCSFDYWGQGTLVTVSS
11 | 944 | Clone #9 VH domain (protein) VH: EVQLVESGGGVVQPGRSLRLSCAASGFTFSSYAMHWVRQAPGKGLEWVSGISYNGDHTYYADSVKGRSTVSRDNAKNTLYLQMDSLRPEDTAMYYCTRNYFFDYWGQGTLVTVSS
12 | 98 | Clone #11 VH domain (protein) VH: EVQLVESGGGVVQPGRSLRLSCAASGFTFSSYAMHWVRQAPGKGLEWVSGITRSGGATFYAGSVKGRFTISRDDSTNTLYLQMNSLRAEDTAVYYCSRDPRRVDYWGQGTLVTVSS

Source: patent publication US20240034807A1
